# Data as given in paper PMC10170298, “Differential regulation of ATP hydrolysis of RIG-I-like receptors by transactivation response RNA-binding protein”.
# B1: TMEV 45-mer dsRNA (dsRNA)
# RNA 1: UUACUAUUGACACUAUGGCUUGCAAACAUGGAUACCCAGAUGUGU
# RNA 2: ACACAUCUGGGUAUCCAUGUUUGCAAGCCAUAGUGUCAAUAGUAA
# Target: T1, TRBP WT (nonphosphorylated) (UniProt Q15633 1-366)
# T1 sequence: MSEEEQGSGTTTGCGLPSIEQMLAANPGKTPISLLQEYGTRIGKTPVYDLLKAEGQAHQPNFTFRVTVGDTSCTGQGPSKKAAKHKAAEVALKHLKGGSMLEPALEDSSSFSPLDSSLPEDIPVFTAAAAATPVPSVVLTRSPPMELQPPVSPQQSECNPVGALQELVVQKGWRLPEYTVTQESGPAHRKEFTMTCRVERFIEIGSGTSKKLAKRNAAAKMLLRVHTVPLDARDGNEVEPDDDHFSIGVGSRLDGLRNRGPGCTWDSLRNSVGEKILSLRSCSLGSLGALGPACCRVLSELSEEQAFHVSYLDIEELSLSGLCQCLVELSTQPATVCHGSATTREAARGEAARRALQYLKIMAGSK
# Assay: EMSA; 20 mM HEPES pH 7.5, 150 mM NaCl, 1.5 mM MgCl2, 2 mM DTT, 30 C, 30 min; dsRNA 60 nM, TRBP 0-400 pmol; 5% acrylamide gel
# Settings: protein: recombinant; label: none (SYBR Gold stain); blunt
binder,measurement,value
B1,binding result,binds
